This note sets out measurements from US20250270343A1 (Alector, published 2025).

The term IC50 denotes the concentration that inhibits the measured activity by half. A high value points to weaker potency. The EC50 (read off the curve) is the concentration at which the effect is half-maximal. For orientation: EC50 means the concentration needed to bring the measured effect to its halfway point.

Changes are numbered by the printed parent chain.

The target of assay [1] is T1, soluble mouse GPNMB-Fc polypeptide (mouse IgG2A Fc) (mouse, UniProt Q99P91 23-502).
T1 construct: extracellular domain; bought (R&D System); also called moGPNMB-Fc; mGPNMB-Fc; not shown: Fc region of mouse IgG2A
T1 sequence (looked up): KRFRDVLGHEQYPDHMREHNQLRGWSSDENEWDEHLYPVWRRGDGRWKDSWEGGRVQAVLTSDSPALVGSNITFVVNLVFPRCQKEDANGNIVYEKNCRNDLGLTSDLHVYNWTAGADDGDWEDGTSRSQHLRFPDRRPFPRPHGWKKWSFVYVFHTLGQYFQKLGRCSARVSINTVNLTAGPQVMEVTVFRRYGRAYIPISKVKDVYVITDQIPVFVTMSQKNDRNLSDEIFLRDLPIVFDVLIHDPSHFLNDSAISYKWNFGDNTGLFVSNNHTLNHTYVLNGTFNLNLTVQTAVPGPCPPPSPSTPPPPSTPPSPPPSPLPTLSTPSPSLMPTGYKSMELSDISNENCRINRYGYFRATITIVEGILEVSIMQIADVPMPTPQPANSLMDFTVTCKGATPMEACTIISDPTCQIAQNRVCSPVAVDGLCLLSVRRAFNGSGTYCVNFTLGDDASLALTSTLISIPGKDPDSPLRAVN
Description: FACS, blocking of moGPNMB-Fc binding to SVEC4-10 cells. As to the method:
(§1) Purified full-length anti-GPNMB antibodies of the present disclosure were evaluated for their ability to block binding of moGPNMB-Fc to SVEC4-10 cells to determine the ligand blocking potency of each anti-GPNMB monoclonal antibody. Briefly, 2 μg/mL moGPNMB-Fc (mouse IgG2A Fc) diluted in binding buffer was pre-complexed with increasing concentrations of anti-GPNMB antibody of the present disclosure or human IgG1 isotype control antibody in 96-well plates. Subsequently, 100,000 SVEC4-10 cells were added per well and incubated on ice for 30 minutes. Soluble moGPNMB-Fc bound to cell surface was detected with fluorescent anti-mouse IgG2A secondary antibody and measured on FACSCanto. (FIG. 5A and FIG. 5B) IC50 values (for antibodies that block moGPNMB-Fc cell binding) and EC50 values (for antibodies that enhance moGPNMB-Fc cell binding) based on changes in MFI values were calculated (average+standard error) for each anti-GPNMB antibody and listed in Table 6. In Table 6, NA indicates no activity. […] In all cases, certain anti-GPNMB antibodies of the present disclosure blocked soluble GPNMB binding to cells, while other anti-GPNMB antibodies of the present disclosure enhanced soluble GPNMB binding to cells.

Assay [2] deals with T2, mouse GPNMB endogenously expressed on B16F10 cells (mouse, UniProt Q99P91 23-574).
T2 construct: whole, on cells; also called moGPNMB
T2 sequence (looked up): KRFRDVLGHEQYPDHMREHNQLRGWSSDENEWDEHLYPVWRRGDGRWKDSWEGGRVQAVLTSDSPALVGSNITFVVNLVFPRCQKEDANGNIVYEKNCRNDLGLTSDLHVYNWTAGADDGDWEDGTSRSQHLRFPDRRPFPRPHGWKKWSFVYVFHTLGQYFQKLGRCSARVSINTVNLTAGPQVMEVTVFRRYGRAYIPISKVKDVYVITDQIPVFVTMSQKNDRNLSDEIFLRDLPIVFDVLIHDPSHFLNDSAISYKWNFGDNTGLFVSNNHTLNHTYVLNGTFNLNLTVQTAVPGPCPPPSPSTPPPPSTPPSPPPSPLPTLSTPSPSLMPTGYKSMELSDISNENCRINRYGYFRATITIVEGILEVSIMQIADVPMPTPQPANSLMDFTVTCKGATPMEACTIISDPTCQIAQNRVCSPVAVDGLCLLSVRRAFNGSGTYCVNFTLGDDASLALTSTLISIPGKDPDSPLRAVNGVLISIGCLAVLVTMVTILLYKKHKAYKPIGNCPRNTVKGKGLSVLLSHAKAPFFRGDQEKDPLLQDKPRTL
Nature of the assay: FACS, B16F10 cells; single-point FACS staining of B16F10 cells; weak signal, 1.7-fold over background. In general terms: In flow cytometry, cells or beads pass a laser one at a time.

Assay [3] concerns the target T2, mouse GPNMB endogenously expressed on …. Description: FACS titration on B16F10 cells (endogenous mouse GPNMB) at 4 C; fluorescent secondary antibody; MFI-APC against soluble antibody (nM). The protocol: Cell-based binding measurements were also performed to measure the apparent affinities of anti-GPNMB antibodies of the present disclosure to cell-surface expressed GPNMB. Serial dilutions of the monoclonal anti-GPNMB antibodies were added to 100,000 Freestyle293-huGPNMB+ or B16F10 cells and allowed to achieve binding equilibrium at 4° C. After addition of fluorescently labeled secondary antibody and brief washing steps, MFI values as a function of titrated antibody concentration was recorded via FACS analysis. Curves were fit using nonlinear regression analysis with Graphpad Prism 6 software.

In assay [4] the target is T1, soluble mouse GPNMB-Fc polypeptide …. Nature of the assay: FACS, enhancing of moGPNMB-Fc binding to SVEC4-10 cells. The protocol: as §1
The target of assay [5] is T3, full-length untagged human GPNMB expressed on cells (human, UniProt Q14956 23-572).
T3 construct: also used here for GPNMB on human monocyte-derived macrophages in the functional assays; also called huGPNMB; Freestyle293-huGPNMB+
T3 sequence: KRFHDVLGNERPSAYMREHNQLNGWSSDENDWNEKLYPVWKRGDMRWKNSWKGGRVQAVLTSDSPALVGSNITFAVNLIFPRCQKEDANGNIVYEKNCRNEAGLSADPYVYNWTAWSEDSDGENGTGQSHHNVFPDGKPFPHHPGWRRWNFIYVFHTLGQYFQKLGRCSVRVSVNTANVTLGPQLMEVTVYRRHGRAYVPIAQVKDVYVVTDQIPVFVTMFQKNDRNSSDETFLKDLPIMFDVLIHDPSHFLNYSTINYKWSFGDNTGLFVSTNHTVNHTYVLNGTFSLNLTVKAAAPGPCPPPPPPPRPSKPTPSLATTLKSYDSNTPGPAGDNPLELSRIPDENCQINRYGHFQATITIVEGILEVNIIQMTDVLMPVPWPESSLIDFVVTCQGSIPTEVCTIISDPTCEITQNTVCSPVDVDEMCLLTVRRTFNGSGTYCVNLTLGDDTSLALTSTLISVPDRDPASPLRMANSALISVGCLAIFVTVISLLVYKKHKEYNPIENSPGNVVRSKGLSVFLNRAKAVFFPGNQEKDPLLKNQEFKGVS
Description: FACS, FS293-huGPNMB+ cells; single-point FACS staining of Freestyle293-huGPNMB+ cells; weak signal, 2.0-fold over background.

In assay [6] the target is T3, full-length untagged human GPNMB …. Nature of the assay: cell-based or functional assay.

B1: anti-GPNMB antibody GPN-48 (antibody, human IgG1, V domains shown)
VH: QVQLQQSGPELVKPGASVKLSCRASGYGFSSFWMNWVKQRPGKGLEWIGRIYPGKGDTLYNGKFKDKATLTADESSSTAYMQLSSLTSEDSAVYFCARSIYYYDYWYFDVWDTGTTVTVSS
VL: DIVMTQSHKFMSTSVGDRVNITCKASQDVNSAIAWYQQKPGQSPKLLIYSASYRFIGVPDRFTGSGSGTGFTFTISSVQAEDLAVYYCQQHYTTPLTFGAGTKLELK
notes: chimeric
For B1, the IC50 in assay [1] was found to be 1.2 nM. The “MFI fold over background” value in assay [2] was determined as 1.7 fold. Moreover, in assay [3], the “EC50 (read off the curve)” value was approximately 1 nM.

B2: anti-GPNMB antibody GPN-42 (antibody, human IgG1, V domains shown)
VH: DVKLVESGEDLVKPGGSLKLSCAASGFTFSSYAMSWVRQTPEKRLEWVAYISSGGDYIYYADTVKGRFTISRDNARNTLYLQMSSLKSEDTAMYYCTRDRYYDYDVRDYYTMDYWGQGTSVTVSS
VL: DVMMTQTPLSLPVSLGDQASISCRSSQSLVHSNGNTYLHWFLQKPGQSPKLLIFRVSNRFSGVPDRFSGRGSGTDFTLKISRVEAEDLGVYFCSQTTHVPRTFGGGTTLEIK
notes: chimeric
On to B2, for which the EC50 in assay [4] was 1.19 nM. In addition, the “MFI fold over background” value in assay [5] turned out to be 2 fold.

B3: anti-GPNMB antibody GPN-65 (antibody, human IgG1, V domains shown)
VH: QLQLQQSGTEVVKPGASVKIPCKASGYAFSSYWMNWVKQRPGKGLEWIGQIYPGDGDTNDNGKFEGKATLTVDKSSNTAYIQLSSLTSEDSAVYFCARSPLHLRGSMDYWGQGTSVTVSS
VL: SIVMTQTPKFLLVSAGDRVTITCKASQSVSNDVAWFQQKPGQSPELLIYSASNRYTGVPDRFTGSGYGTDFTFTISTVQAEDLAVYFCQQNYYSPFTFGGGTRLEIK
notes: chimeric
With B3, the “IC50 (read off the curve) of the loss of cell surface GPNMB (MFI), internalization assay on human macrophages” value in assay [6] was approximately 2 nM. Besides, in assay [4], the EC50 was determined as 4.27 nM.

B4: anti-GPNMB antibody GPN-43 (antibody, human IgG1, V domains shown)
VH: EVQLQQSGPELVKPGASVKISCKASGYTFTDYYMNWVRQSHGKSLEWIGDINPYHGGSTYNQKIKVKATLTVDKSSSTAYMELRSLTSEDSAVYYCARNWPYFDYWGQGTTLTVSS
VL: DIQMTQSPASLSASVGETVTITCRASENIYSFLVWYQQKQGKSPQLLVYNAKTLAEGVPSRFSGSGSGTQFSLKISSLQPEDFGSYYCQHHFGTPPYTFGGGTKLEIK
notes: chimeric
With B4, the IC50 in assay [1] was 5.37 nM.

B5: anti-GPNMB antibody GPN-37 (antibody, human IgG1, V domains shown)
VH: EVQLVESGGGLVQPGRSLKLSCAASGFTFSSKSGMAWVRQAPTKGLEWVASISNGGGDTYYRDSVKGRFTISRDNAKNTQYLQMDSLRPEDTATYYCARHRDYGYDAYFDYWGQGVMVTVSS
VL: DIQMTQSPASLSASLGETVTIECLASEDIYSSLAWYQQKPGKSPQLLIYDASSLQDGVPSRFSGSESGTQYSLEINSLQSEDAATYFCQQHHDYPYTFGAGTKLELK
notes: chimeric
Consider B5, for which the “IC50 (read off the curve) of the loss of cell surface GPNMB (MFI), internalization assay on human macrophages” value in assay [6] is approximately 2 nM.

B6: anti-GPNMB antibody GPN-52 (antibody, human IgG1, V domains shown)
VH: DVQLQESGPGLVKPSQTVFLTCTVTGISITTGNYRWSWIRQFPGNKLEWIGYIYYSGTITYNPSLTSRITITRDTPKNEFFLEMNSLTAEDTATYYCARDLTHWYFDVWGTGTTVTVSS
VL: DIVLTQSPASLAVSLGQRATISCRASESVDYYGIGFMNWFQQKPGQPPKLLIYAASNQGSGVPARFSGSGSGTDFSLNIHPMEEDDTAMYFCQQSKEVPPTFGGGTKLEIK
notes: chimeric
With B6, the “IC50 (read off the curve) of the loss of cell surface GPNMB (MFI), internalization assay on human macrophages” value in assay [6] is approximately 2 nM. In addition, the IC50 in assay [1] turned out to be 1 nM.

B7: anti-GPNMB antibody GPN-61 (antibody, human IgG1, V domains shown)
VH: B6 VH with I69T, E79Q, N85S, Y96F, T102R
VL: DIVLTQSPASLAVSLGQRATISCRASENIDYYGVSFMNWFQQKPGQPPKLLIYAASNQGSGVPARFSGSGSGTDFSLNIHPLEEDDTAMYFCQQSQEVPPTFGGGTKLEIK
notes: chimeric
With B7, the “IC50 (read off the curve) of the loss of cell surface GPNMB (MFI), internalization assay on human macrophages” value in assay [6] is approximately 2 nM. In addition, the IC50 in assay [1] came out at 0.77 nM. Further, in assay [2], the “MFI fold over background” value is 1.7 fold. Besides, the “EC50 (read off the curve)” value in assay [3] is approximately 0.1 nM.

B8: anti-GPNMB antibody GPN-35 (antibody, human IgG1, V domains shown)
VH: EVQLVESGGGSVRPGRSLKLSCAAAGFTFSDYYMTWVRQAPTKGLEWVASINHDGGGTYYRDSVKGRFTISRDNARSSLYLQMDSLRSEDTGTYYCTTRAGWHWGQGVMVTVSS
VL: DIQMTQSPASLSASLGETVSIECLASEDIYNYLTWYQQKPGKSPQVLIYSASGLQDGVPSRFSGSGSGRQYSLKINGLESEDAATYFCLQDSEYPLTFGSGTKLEIK
notes: chimeric
B8 yielded an IC50 in assay [1] of 1.17 nM.
